Measured values: patent US20200262877A1, “ION CHANNEL-BINDING PEPTIDES AND METHODS OF USE THEREOF” (priority 2017, published 2020)

Tests used:
[1] = target: T1, α4β2 (Homo sapiens, UniProt P17787+P43681); test: Ion channel panel (IonWorks Barracuda): α4β2; format: cell-based; conditions: 100% = no change, <100% = inhibition
T1 construct: host or cells: HEK293 or CHO
Method in brief: (§1)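 Transfected HEK293 or CHO cells were exposed for at least 5 min to peptides at 200 nM and 20 μM final, tested in duplicate, in HEPES-buffered physiological saline. Activation was taken as peptide-plus-agonist current over control current ×100, and inhibition as 1 minus that ratio ×100. Each channel's control was its own reference compound.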

[2] = target: T2, 5HT3a (Homo sapiens, UniProt P46098); test: Ion channel panel (IonWorks Barracuda): 5HT3a; format: cell-based
T2 construct: host or cells: HEK293 or CHO
T2 sequence (P46098 whole entry, looked up): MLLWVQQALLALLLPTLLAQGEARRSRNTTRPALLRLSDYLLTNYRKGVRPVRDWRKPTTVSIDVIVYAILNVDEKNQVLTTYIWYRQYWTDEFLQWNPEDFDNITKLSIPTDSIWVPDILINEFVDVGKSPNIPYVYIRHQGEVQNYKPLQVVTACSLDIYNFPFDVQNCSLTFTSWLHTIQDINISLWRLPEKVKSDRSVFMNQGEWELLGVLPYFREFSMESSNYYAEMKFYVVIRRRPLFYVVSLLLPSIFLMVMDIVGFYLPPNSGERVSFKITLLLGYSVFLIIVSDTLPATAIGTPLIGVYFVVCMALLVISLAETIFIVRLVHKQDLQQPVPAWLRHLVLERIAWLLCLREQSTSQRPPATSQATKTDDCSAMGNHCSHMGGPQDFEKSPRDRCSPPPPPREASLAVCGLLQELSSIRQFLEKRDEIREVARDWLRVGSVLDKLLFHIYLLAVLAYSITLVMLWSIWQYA
Method in brief: as §1

[3] = target: hERG (Homo sapiens, UniProt Q12809); test: in vitro
Method in brief: as §1

[4] = target: Nav1.5 (Homo sapiens, UniProt Q14524); test: in vitro; conditions: for Activity of Nav1.5 with peptide, expressed as a percentage of the reference compound: peptide at 0.2 μM; for Activity of Nav1.5 with peptide, expressed as a percentage of the reference compound / Activity of Nav1.5 with peptide (percentage of the reference compound): 100% = no change; for Activity of Nav1.5 with peptide (percentage of the reference compound): peptide at 20 μM
Method in brief: as §1

[5] = tested on: GABA; test: Ion channel panel (IonWorks Barracuda): GABA; format: cell-based; conditions: 100% = no change, <100% = inhibition
Method in brief: as §1

[6] = target: T3, NR2A (Homo sapiens, UniProt Q12879); test: Ion channel panel (IonWorks Barracuda): NR2A; format: cell-based; conditions: 100% = no change, <100% = inhibition
T3 construct: host or cells: HEK293 or CHO
Method in brief: as §1

[7] = target: T4, α3β4 (Homo sapiens, UniProt P30926+P32297); test: Ion channel panel (IonWorks Barracuda): α3β4; format: cell-based; conditions: 100% = no change, <100% = inhibition
T4 construct: host or cells: HEK293 or CHO
Method in brief: as §1

[8] = target: T5, TRPA1 (Homo sapiens, UniProt O75762); test: Ion channel panel (IonWorks Barracuda): TRPA1; format: cell-based; conditions: 100% = no change, <100% = inhibition
T5 construct: host or cells: HEK293 or CHO
Method in brief: as §1

[9] = target: T6, Kv2.1 (Homo sapiens, UniProt Q14721); test: cell-based; conditions: 100% = no change, <100% = inhibition
T6 construct: host or cells: HEK293 or CHO
Method in brief: as §1

[10] = target: T7, Cav2.2 (Homo sapiens, UniProt Q00975); test: cell-based
T7 construct: host or cells: HEK293 or CHO
Method in brief: as §1

[11] = target: T8, Cav2.1 (Homo sapiens, UniProt O00555); test: cell-based
T8 construct: host or cells: HEK293 or CHO
Method in brief: as §1

[12] = target: T9, Nav1.7 (Homo sapiens, UniProt Q15858); test: cell-based; format: cell-based; conditions: for Activity of Nav1.7 with peptide, expressed as a percentage of the reference compound: peptide at 0.2 μM; for Activity of Nav1.7 with peptide, expressed as a percentage of the reference compound / Activity of Nav1.7 with peptide (percentage of the reference compound): 100% = no change; for Activity of Nav1.7 with peptide (percentage of the reference compound): peptide at 20 μM
T9 construct: host or cells: HEK293 or CHO

[13] = target: T10, TRPV1 (Homo sapiens, UniProt Q8NER1); test: Ion channel panel (IonWorks Barracuda): TRPV1; format: cell-based; conditions: 100% = no change, <100% = inhibition
T10 construct: host or cells: HEK293 or CHO
Method in brief: as §1

[14] = target: T11, NR2B (Homo sapiens, UniProt Q13224); test: Ion channel panel (IonWorks Barracuda): NR2B; format: cell-based; conditions: 100% = no change, <100% = inhibition
T11 construct: host or cells: HEK293 or CHO
Method in brief: as §1

[15] = target: T12, Kv1.1 (Homo sapiens, UniProt Q09470); test: cell-based; format: cell-based; conditions: 100% = no change, <100% = inhibition
T12 construct: host or cells: HEK293 or CHO
Method in brief: as §1

[16] = target: T13, Kv1.3 (Homo sapiens, UniProt P22001); test: cell-based; format: cell-based; conditions: 100% = no change, <100% = inhibition
T13 construct: host or cells: HEK293 or CHO
Method in brief: as §1

[17] = target: T14, Kv1.2 (Homo sapiens, UniProt P16389); test: cell-based; format: cell-based; conditions: 100% = no change, <100% = inhibition
T14 construct: host or cells: HEK293 or CHO
Method in brief: as §1

[18] = target: T15, Kir2.1 (Homo sapiens, UniProt P63252); test: Ion channel panel (IonWorks Barracuda): Kir2.1; format: cell-based; conditions: 100% = no change, <100% = inhibition
T15 construct: host or cells: HEK293 or CHO
Method in brief: as §1

[19] = tested on: panel of 20 ion channels; format: cell-based
Protocol: This example describes a method for assaying ion channel activity in cells.
Peptides were screened in duplicate at final concentrations of 20 μM and 200 nM, as determined by amino acid analysis, and diluted into HEPES buffered physiological saline (HBPS). HEK293 or CHO cells from the American Type Culture Collection (ATCC) were transfected with the appropriate ion channel before use. HEK293 cells were grown in Dulbecco's Modified Eagle Medium/Nutrient Mixture F-12, and CHO cells were cultured in Ham's F-12 media. All cultures were supplemented with 10% fetal bovine serum, 100 U/ml penicillin G, 100 μg/ml streptomycin sulfate, and the appropriate selection antibiotics. Prior to use, cells were washed twice with Hank's Balanced Salt Solution, and treated with Accutase cell detachment solution (Sigma-Aldrich). Cells were then washed. Peptides and controls were incubated with cells for at least five minutes.
Percent inhibition was defined as: (1-(Ipeptide/Icontrol))×100%).
Percent values were calculated using the following formula: % activation=(IPeptide/Icontrol)×100%, where IPeptide is the current produced by co-application a peptide with agonist, and Icontrol refers to the current produced by stimulation in control. Control used for each ion channel is the reference compound matched to a particular channel, as illustrated in TABLE 10 below.

[20] = peptide at 0.2 μM, 100% = no change, <100% = inhibition
[21] = peptide at 20 μM, 100% = no change, <100% = inhibition
[22] = first of two Nav1.5 columns (probably TP1)
[23] = second of two Nav1.5 columns (probably TP2)
[24] = first of two Nav1.7 columns (probably TP1)
[25] = second of two Nav1.7 columns (probably TP2)
[26] = read-out: Ion channel activity (ion channel inhibition)

T7 sequence (Q00975 whole entry): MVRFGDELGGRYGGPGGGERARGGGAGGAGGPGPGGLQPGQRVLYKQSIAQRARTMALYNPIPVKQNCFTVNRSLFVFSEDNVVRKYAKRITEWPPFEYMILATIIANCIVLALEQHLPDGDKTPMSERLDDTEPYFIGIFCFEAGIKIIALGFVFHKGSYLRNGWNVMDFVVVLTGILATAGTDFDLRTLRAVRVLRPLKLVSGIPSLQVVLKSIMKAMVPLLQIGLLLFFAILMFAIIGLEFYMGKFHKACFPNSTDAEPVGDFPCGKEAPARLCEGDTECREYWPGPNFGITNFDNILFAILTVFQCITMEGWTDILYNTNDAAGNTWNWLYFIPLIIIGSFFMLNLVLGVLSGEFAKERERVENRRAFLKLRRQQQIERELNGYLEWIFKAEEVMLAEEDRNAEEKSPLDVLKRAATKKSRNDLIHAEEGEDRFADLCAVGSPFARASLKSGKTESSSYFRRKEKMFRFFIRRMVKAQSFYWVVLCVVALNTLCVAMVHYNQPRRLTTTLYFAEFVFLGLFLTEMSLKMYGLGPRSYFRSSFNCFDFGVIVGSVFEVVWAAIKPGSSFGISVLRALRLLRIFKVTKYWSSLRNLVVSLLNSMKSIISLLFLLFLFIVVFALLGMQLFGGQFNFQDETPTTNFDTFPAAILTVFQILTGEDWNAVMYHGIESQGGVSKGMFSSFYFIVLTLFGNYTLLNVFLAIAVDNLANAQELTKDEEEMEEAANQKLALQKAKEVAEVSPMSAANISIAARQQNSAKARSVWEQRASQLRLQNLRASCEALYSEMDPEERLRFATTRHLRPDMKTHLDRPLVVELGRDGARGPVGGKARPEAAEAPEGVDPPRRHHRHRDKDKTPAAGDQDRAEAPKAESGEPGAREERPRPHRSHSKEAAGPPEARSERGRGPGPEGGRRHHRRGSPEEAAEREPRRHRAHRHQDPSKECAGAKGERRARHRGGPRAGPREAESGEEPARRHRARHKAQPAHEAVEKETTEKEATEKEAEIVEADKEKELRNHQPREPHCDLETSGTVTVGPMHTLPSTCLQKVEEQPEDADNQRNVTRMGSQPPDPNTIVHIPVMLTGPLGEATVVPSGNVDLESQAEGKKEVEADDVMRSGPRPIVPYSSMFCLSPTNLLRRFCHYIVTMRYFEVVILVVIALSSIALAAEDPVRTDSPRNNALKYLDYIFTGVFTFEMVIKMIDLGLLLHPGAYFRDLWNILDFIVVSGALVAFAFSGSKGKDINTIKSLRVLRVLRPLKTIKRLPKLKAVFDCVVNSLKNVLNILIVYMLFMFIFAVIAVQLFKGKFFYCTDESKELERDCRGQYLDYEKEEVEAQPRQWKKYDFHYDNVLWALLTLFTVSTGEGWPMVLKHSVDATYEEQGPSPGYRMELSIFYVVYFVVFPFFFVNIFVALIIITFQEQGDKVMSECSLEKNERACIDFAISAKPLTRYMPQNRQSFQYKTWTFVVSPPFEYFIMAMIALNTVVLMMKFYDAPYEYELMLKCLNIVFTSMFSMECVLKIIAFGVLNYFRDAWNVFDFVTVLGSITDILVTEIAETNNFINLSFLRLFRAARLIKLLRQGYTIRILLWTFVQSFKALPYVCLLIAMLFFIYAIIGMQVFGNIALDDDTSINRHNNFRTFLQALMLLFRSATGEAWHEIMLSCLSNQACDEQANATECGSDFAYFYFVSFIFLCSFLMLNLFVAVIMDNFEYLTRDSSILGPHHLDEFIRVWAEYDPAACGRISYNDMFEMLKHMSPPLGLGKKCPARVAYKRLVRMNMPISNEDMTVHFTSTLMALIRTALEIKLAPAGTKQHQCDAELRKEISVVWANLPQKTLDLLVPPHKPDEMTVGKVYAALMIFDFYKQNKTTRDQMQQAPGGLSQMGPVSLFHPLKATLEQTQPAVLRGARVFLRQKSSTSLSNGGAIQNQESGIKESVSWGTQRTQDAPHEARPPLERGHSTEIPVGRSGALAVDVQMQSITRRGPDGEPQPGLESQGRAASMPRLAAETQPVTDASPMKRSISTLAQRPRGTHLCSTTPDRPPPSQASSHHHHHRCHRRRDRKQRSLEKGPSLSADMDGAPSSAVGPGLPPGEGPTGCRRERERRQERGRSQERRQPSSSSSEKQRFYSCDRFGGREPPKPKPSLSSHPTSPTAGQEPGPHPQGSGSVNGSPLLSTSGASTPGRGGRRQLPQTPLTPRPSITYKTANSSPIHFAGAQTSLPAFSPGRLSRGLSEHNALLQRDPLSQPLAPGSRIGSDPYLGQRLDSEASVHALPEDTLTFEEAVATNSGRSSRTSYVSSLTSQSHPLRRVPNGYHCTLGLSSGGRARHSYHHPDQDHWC
T7 sequence (P54289 25-1103, further chain): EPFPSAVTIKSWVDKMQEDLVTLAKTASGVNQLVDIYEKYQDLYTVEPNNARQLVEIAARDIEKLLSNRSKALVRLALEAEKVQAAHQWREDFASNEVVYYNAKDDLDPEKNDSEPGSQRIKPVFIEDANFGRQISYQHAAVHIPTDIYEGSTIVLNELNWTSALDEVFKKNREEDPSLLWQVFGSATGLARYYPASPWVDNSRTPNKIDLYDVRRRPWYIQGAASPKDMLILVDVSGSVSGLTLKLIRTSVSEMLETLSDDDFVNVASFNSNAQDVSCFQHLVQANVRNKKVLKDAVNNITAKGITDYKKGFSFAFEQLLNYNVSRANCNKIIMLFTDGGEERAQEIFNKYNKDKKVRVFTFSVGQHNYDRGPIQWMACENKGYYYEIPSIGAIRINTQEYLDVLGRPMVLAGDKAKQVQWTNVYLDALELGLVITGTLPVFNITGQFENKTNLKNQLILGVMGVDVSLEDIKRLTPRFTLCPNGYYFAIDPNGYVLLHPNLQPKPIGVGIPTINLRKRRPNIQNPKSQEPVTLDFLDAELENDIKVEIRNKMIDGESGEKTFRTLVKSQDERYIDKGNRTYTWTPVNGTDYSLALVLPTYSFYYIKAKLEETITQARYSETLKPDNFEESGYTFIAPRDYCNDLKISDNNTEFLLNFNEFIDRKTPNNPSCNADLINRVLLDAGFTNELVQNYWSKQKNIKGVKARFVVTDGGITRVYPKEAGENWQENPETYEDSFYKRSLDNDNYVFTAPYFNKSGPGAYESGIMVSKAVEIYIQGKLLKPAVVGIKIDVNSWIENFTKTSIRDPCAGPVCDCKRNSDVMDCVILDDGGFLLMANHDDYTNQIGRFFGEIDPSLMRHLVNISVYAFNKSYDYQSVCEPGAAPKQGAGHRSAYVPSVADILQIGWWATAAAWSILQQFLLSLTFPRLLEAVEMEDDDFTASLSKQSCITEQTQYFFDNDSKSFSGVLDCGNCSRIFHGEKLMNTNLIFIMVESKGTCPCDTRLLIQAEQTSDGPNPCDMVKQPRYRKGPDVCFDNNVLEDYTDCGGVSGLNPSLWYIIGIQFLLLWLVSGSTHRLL
T7 sequence (P54284 whole entry, further chain): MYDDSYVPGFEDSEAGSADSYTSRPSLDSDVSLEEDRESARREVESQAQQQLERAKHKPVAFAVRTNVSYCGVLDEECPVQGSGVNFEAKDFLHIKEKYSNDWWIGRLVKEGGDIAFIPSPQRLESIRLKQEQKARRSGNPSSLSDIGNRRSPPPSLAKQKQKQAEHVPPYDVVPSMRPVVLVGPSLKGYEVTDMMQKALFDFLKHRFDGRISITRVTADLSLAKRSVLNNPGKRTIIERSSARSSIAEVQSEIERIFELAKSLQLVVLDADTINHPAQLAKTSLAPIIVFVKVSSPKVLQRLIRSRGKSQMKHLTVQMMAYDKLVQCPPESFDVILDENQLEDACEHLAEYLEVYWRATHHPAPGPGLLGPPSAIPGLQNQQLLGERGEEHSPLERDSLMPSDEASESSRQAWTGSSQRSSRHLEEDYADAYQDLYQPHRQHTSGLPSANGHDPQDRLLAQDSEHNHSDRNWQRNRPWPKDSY
Chain of hERG (Q12809 whole entry): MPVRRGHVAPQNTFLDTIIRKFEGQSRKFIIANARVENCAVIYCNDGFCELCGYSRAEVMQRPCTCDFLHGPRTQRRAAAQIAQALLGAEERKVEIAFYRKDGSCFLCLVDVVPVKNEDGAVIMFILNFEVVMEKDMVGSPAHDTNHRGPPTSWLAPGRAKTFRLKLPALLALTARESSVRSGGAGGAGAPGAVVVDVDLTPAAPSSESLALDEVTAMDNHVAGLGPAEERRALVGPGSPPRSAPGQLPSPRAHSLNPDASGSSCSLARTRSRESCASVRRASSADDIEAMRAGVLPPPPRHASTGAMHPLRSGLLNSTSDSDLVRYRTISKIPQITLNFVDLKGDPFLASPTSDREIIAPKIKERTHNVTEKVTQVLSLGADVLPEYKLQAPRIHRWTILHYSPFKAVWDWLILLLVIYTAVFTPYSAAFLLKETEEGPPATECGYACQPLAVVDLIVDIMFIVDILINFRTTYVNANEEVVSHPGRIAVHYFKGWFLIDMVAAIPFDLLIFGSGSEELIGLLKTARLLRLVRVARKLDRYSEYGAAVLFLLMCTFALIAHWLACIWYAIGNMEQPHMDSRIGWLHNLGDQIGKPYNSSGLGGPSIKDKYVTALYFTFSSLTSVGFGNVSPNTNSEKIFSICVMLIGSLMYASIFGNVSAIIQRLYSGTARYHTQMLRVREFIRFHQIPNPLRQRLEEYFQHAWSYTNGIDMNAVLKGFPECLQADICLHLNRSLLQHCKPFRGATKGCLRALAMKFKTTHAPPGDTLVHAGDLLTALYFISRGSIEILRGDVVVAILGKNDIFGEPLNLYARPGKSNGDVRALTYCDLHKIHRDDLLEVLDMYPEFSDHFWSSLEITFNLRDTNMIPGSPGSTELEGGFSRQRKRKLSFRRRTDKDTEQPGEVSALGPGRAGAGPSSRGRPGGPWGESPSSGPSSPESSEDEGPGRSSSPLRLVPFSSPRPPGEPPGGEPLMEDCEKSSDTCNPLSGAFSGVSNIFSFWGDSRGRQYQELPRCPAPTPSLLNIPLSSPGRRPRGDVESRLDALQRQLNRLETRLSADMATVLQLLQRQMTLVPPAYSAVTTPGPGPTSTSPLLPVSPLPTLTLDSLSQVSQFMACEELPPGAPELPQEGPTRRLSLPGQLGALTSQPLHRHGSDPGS

39 (GSGVPTDVKCRGSPQCIQPCKDAGMRFGKCMNGKCHCTPK) [compound 39]
Activity of a4b2 with peptide, expressed as a percentage of the reference compound ([1]; peptide at 0.2 μM): 98%
Activity of a4b2 with peptide (percentage of the reference compound) ([1]; peptide at 20 μM): 91%
Activity of 5HT3a with peptide (percentage of the reference compound) [2]: 55%
Activity of 5HT3a with peptide, expressed as a percentage of the reference compound [2]: 67%
Activity of hERG with peptide, expressed as a percentage of the reference compound [3, 20]: 103%
Activity of hERG with peptide (percentage of the reference compound) [3, 21]: 84%
Activity of Nav1.5 with peptide, expressed as a percentage of the reference compound [4, 22]: 108%
Activity of Nav1.5 with peptide, expressed as a percentage of the reference compound [4, 23]: 105%
Activity of Nav1.5 with peptide (percentage of the reference compound) [4, 22]: 111%
Activity of Nav1.5 with peptide (percentage of the reference compound) [4, 23]: 114%
Activity of GABA with peptide, expressed as a percentage of the reference compound ([5]; peptide at 0.2 μM): 111%
Activity of GABA with peptide (percentage of the reference compound) ([5]; peptide at 20 μM): 108%
Activity of NR2A with peptide, expressed as a percentage of the reference compound ([6]; peptide at 0.2 μM): 106%
Activity of NR2A with peptide (percentage of the reference compound) ([6]; peptide at 20 μM): 82%
Activity of a3b4 with peptide, expressed as a percentage of the reference compound ([7]; peptide at 0.2 μM): 99%
Activity of a3b4 with peptide (percentage of the reference compound) ([7]; peptide at 20 μM): 93%
Activity of TRPA1 with peptide, expressed as a percentage of the reference compound ([8]; peptide at 0.2 μM): 136%
Activity of TRPA1 with peptide (percentage of the reference compound) ([8]; peptide at 20 μM): 92%
Activity of Kv2.1 with peptide, expressed as a percentage of the reference compound ([9]; peptide at 0.2 μM): 118%
Activity of Kv2.1 with peptide (percentage of the reference compound) ([9]; peptide at 20 μM): 102%
Activity of Cav2.2 with peptide, expressed as a percentage of the reference compound [10, 20]: 117%
Activity of Cav2.2 with peptide (percentage of the reference compound) [10, 21]: 98%
Activity of Cav2.1 with peptide, expressed as a percentage of the reference compound [11, 20]: 96%
Activity of Cav2.1 with peptide (percentage of the reference compound) [11, 21]: 96%
Activity of Nav1.7 with peptide, expressed as a percentage of the reference compound [12, 24]: 42%
Activity of Nav1.7 with peptide, expressed as a percentage of the reference compound [12, 25]: 39%
Activity of Nav1.7 with peptide (percentage of the reference compound) [12, 24]: 108%
Activity of Nav1.7 with peptide (percentage of the reference compound) [12, 25]: 110%
Activity of TRPV1 with peptide, expressed as a percentage of the reference compound ([13]; peptide at 0.2 μM): 95%
Activity of TRPV1 with peptide (percentage of the reference compound) ([13]; peptide at 20 μM): 83%
Activity of NR2B with peptide, expressed as a percentage of the reference compound ([14]; peptide at 0.2 μM): 102%
Activity of NR2B with peptide (percentage of the reference compound) ([14]; peptide at 20 μM): 85%
Activity of Kv1.1 with peptide, expressed as a percentage of the reference compound ([15]; peptide at 0.2 μM): 37%
Activity of Kv1.1 with peptide (percentage of the reference compound) ([15]; peptide at 20 μM): 21%
Activity of Kv1.3 with peptide, expressed as a percentage of the reference compound ([16]; peptide at 0.2 μM): 7%
Activity of Kv1.3 with peptide (percentage of the reference compound) ([16]; peptide at 20 μM): 1%
Activity of Kv1.2 with peptide, expressed as a percentage of the reference compound ([17]; peptide at 0.2 μM): 96%
Activity of Kv1.2 with peptide (percentage of the reference compound) ([17]; peptide at 20 μM): 84%
Activity of Kir2.1 with peptide, expressed as a percentage of the reference compound ([18]; peptide at 0.2 μM): 110%
Activity of Kir2.1 with peptide (percentage of the reference compound) ([18]; peptide at 20 μM): 98%

CC[C@H](C)[C@@H]1NC(=O)[C@H](CC(N)=O)NC(=O)[C@H](CCCNC(=N)N)NC(=O)[C@@H]2CCCN2C(=O)[C@H](Cc2c[nH]c3ccccc23)NC(=O)[C@H](CCCCN)NC(=O)[C@H](CO)NC(=O)[C@H](CCCCN)NC(=O)[C@@H]2CSSC[C@@H]3NC(=O)[C@H](CCCCN)NC(=O)CNC(=O)[C@H](Cc4c[nH]c5ccccc45)NC(=O)[C@H](Cc4ccccc4)NC(=O)[C@H](CCCNC(=N)N)NC(=O)[C@H](C(C)C)NC(=O)[C@@H](NC(=O)[C@H](CC(=O)O)NC(=O)[C@H](CO)NC(=O)CN)CSSC[C@H](NC(=O)[C@H](CSSC[C@@H](C(=O)N[C@H](C(=O)N[C@@H](Cc4c[nH]c5ccccc45)C(=O)N[C@@H](CC(=O)O)C(=O)NCC(=O)N[C@@H](CO)C(=O)N[C@H](C(=O)NCC(=O)O)C(C)C)C(C)C)NC1=O)NC(=O)[C@H](CC(=O)O)NC(=O)[C@H](CO)NC(=O)[C@H]([C@@H](C)O)NC(=O)[C@H](CCC(N)=O)NC(=O)[C@H](CO)NC3=O)C(=O)N1CCC[C@H]1C(=O)N[C@@H](Cc1c[nH]cn1)C(=O)N[C@@H](CC(C)C)C(=O)N[C@@H](C)C(=O)N2 [SEQ ID NO: 7]
activity at 20 µM ([3]; human): < 50%
activity at 20 µM [4]: < 50%
Inhibition of voltage-sensitive calcium channels [19]: inhibited voltage-sensitive calcium channels
activity at 20 µM [10, 26]: < 50%
activity at 20 µM [11, 26]: < 50%
activity at 20 µM [12, 26]: < 50%
